Test: soluble on expression in E. coli; label from the status in PepcDB or PDB records

Row | Sequence | soluble on expression in E. coli
1 | MHTDTPSLESLLEAARQRYDVVFEPLTVDETPLDVLQIRNMRQHIDALVANRSVRDPLHDLPLWAKIWPASFVLGRFLRKASPEGRTLLEVGAGCGVTGLIASRYGFAHVTVSDINEDALLFARANVLKNGLEDRVSVRRVDVASTRLDEKFDVIAASEVLYLEELHRPLIKFLLRHLARREDAVAMLCTDTRRKMGRFFKQAERDFRIEEQLVGIRTTGDDGEEERRVFTIHRLHHKHPLEHHHHHH | not soluble
2 | MHTQRAGLSAIVATYRYQLATGVVYRDISSTIATEKIPFVENAVLKERAFIETIKQHQEPQRRIPRPVDSYVMLHSNARITTSRVIPQHKYKVTAKNPCRSIKRNAFQTAPSQTQLFISVNNRWLGLEHHHHHH | not soluble
3 | MHVTLVEINVHEDKVDEFIEVFRQNHLGSVQEEGNLRFDVLQDPEVNSRFYIYEAYKDEDAVAFHKTTPHYKTCVAKLESLMTGPRKKRLFNGLMP | soluble
4 | MIAKHIDRFPLLKLDRVIDWQLIEQYLNRQKTRYLRDHRGRPAYPLLSMFKAVLLGQWHSLSDPELEHSLITRIDFNLFCRFDELSIPDYSTLCRYRNRLAQDNTLSELLELINRQLTEKGLKIEKASAAVVDATIIQTAGSKQRQAIEVDEEGQISGQTTPSKDSDARWIKKNGLYKLGYKQHTRTDAEGYIEKLHITPANAHECKHLSPLLEGLPKGTTVYADKGYDSAENRQHLEEHQLLDGIMRKAHRNRPLTEVQTKRNRYLSKTRYVVEQSFGTLHRKFRYARAAYFGLVKVSAQSHLKAMCLNLLKAANRLSAPAAA | not soluble
5 | MICARIRPLISSPLAFTISTTKHSRINLRLLPRRSFSVMSSSTPQSQIIEHIVLFKTKDDADSTKITSMINNLNALAYLDQVLHISTSPLHRISSATAFTHVLHSRYESKEDLASYAAHPDHVRVVKESVLPICDDIMAVDWIADRIPGTVAPLPGSVAKLTLLKLKEDVADEAKSEITGVIKGLSEKFPGIDQITVGENFSPARAKGFSIASIAYFKDLSEMEAVDAQKELVNSQKDKVRDYVDSTIVVEFVVPSSSQSSSL | soluble
6 | MIDEYDDLAHDSSEGEFEPNTLTPEEKPPHNVDEDRIESTGVAAPMQGTEEPEKGDQKESDGASQVDQSVEITRPETSYYQTLESPSTKRQKLDQQGNGDQTRDFGTSMEL | soluble
7 | MIDIHCHILPAMDDGAGDSADSIEMARAAVRQGIRTIIATPHHNNGVYKNEPAAVREAADQLNKRLIKEDIPLHVLPGQEIRIYGEVEQDLAKRQLLSLNDTKYILIEFPFDHVPRYAEQLFYDLQLKGYIPVIAHPERNREIRENPSLLYHLVEKGAASQITSGSLAGIFGKQLKAFSLRLVEANLIHFVASDAHNVKTRNFHTQEALYVLEKEFGSELPYMLTENAELLLRNQTIFRQPPQPVKRRKLFGFF | not soluble
8 | MIDLDSLEHIGVLGKPHGVQGECNARLTADLSTLFEEEERLFLFFELDALPVPFRLIGYREKTDDITLLRFAGIESKEEMEQYTGVSLFMERRYFDTDSIEFTWEHFIGFTVFDREGCFVGTIDDVDESTLNVLLSITTPEGKELLLPVAEDLLEEIDVPNRKLTMIIPDGLLQLLEHHHHHH | soluble
9 | MIDLRKLTEVQRRLSRKIVEKPIDIAKVKRVGAVDVSYKNNFAKAAFVCVEFPSGEIIKTKTIVTTVEFPYIPTFFFLRETKPILLAVKDENFDVLLVEGHGKAHPRRYGLASHIGVILSKPTIGVAKRLLRGVSKDTYVKVGKAFVSVGNLITLNDAVRIVEKLLDENGYPKPLNIADKLSKRGESREKELEHHHHHH | not soluble
10 | MIDVHCHLVDNKFKEDLDDVIGHAHATGIQKMINFPEFESQFEKSIGISKKWPGSVYTGIGIHPIQKRGKSAKMKHISKMEQFFVEHERDIICVGECGLDHTISQFKLTTEDFEEQETVFKWQIDLAKHFEKPLNVHSRSAARRTIEILLECHVAPDQVVLHAFDGTPGDLKLGLEAGYLFSIPPSFGKSEETTQLIESIPLSQLLLETDSPALGPEKGCKNVPANLRISAEIVAKIKKLEIDDIISATSTNANRIFKF | soluble
11 | MIEFTALDDLSLLRESVSLECKLAQGRDGKGALPDDFWPTYSAMANTDGGIVILGVRERKGQFEVAGIENPDKLRTELFNHLNNRQKVSVNLLRDEDVRAWPVEGKTLLVVEIPRARRQQRPVYLRGNPLGGHTYRRLHEGDRPLPDEDVKRMLAEQVEDSRDERILPGYGLDDLHLESLRAYRQLFANRDPSHPWNALADQAFLRQIGGWRQHRETGEAGLTLAGLLMFGQWSSITEAVPLCFLDYQERPADYATTVQWLDRIVPDGTWSGNVFDFYRRVVGKLTADIKVPFVLKGDIRQDDTPTHKALREALVNTLVHADYTGRISVLVVKEPAGFVLRNPGGLRVPAQQALQGGMSDCRNRTMQQMFLMIGLGERAGSGMSRIVHGWRDLGHELHLRESYEPHEHSVLEMFWAKGRGATLASESSEESSEESSEETGKKILHLLREEPSLTASALARRLQLTPRAIEKQLEHHHHHH | not soluble
12 | MIEIKHLKTLQALRNSGSLAAAAAVLHQTQSALSHQFSDLEQRLGFRLFVRKSQPLRFTPQGEVLLQLANQVLPQISRALQACNEPQQTRLRIAIECHSCIQWLTPALENFRASWPQVEMDFTSGVTFDPQPALQQGELDLVMTSDILPRSGLHYSPMFDFEVRLVLAPDHPLASKTQITPEDLASETLLIYPVQRSRLDVWRHFLQPAGISPLLKSVDNTLLLIQMVAARMGIAALPHWVVESVERQGLVVTKTLGDGLWSRLYAAVRDGDQRQAVTEAFIRSTRDHACDHLPFVRSAERPIFDAPTAKPGSQPRL | not soluble
13 | MIENAKENSQRVELKDRIIETASEAFTTHGIKSITMDDIAASLGISKRTLYEVFQDKESLLTQCILKRQEEMNAFLAETLANSKNVLEVILVCYQRSIETFHRTNKRFFEDIKKYPKVHSLLKNYRERDSDSTIEFFKMGIKQGIFRDDVNFAIVNLLVHEQLDLLMNTDICNKYSFLEVYEAIMFTYIRGISTEKGAKVLEDFITEYRKQRIH | not soluble
14 | MIERYSREEMSNIWTDQNRYEAWLEVEILACEAWSELGHIPKADVQKIRQNAKVNVERAQEIEQETRHDVVAFTRQVSETLGEERKWVHYGLTSTDVVDTALSFVIKQANDIIEKDLERFIDVLAEKAKNYKYTLMMGRTHGVHAEPTTFGVKMALWYTEMQRNLQRFKQVREEIEVGKMSGAVGTFANIPPEIESYVCKHLGIGTAPVSTQTLQRDRHAYYIATLALIATSLEKFAVEIRNLQKTETREVEEAFAKGQKGSSAMPHKRNPIGSENITGISRVIRGYITTAYENVPLWHERDISHSSAERIMLPDVTIALDYALNRFTNIVDRLTVFEDNMRNNIDKTFGLIFSQRVLLALINKGMVREEAYDKVQPKAMISWETKTPFRELIEQDESITSVLTKEELDECFDPKHHLNQVDTIFERAGLA | soluble
15 | MIETKRQQERVILLGVELQTTEHFDMSMTELANLAKTAGVKVMASFSQKRERYDSKTFIGSGKLDEIKAIVEADEIDAVIVNNRLTARQNANLEAVLEVKVIDRMQLILDIFAMRARSHEGKLQVHLAQLKYMLPRLVGQGIMLSRQAGGIGSRGPGESQLELNRRSIRHQIADIERQLTQVEKNRQTIRDRRVGSDTFKIGLIGYTNAGKSTIMNLLTDDSHYEANELFATLDATTKQLYLENQFQATLTDTVGFIQDLPTELVAAFKSTLEESKYVDLLLHVIDASDPNHSEQEKVVLNLLKELDMLNIPRLAIYNKVDIAEQFTATAFPNIRISARSKDSKILLRRLIIDQIRDQFVPFRIKVHQDKAYKLYDLNRVALLDHYTFDQEIEDISGYISPKQQWRLDDFYELEHHHHHH | soluble
16 | MIEVKHLKTLQALRNCGSLAAAAATLHQTQSALSHQFSDLEQRLGFRLFVRKSQPLRFTPQGEILLQLANQVLPQISQALQACNEPQQTRLRIAIECHSCIQWLTPALENFHKNWPQVEMDFKSGVTFDPQPALQQGELDLVMTSDILPRSGLHYSPMFDYEVRLVLAPDHPLAAKTRITPEDLASETLLIYPVQRSRLDVWRHFLQPAGVSPSLKSVDNTLLLIQMVAARMGIAALPHWVVESFERQGLVVTKTLGEGLWSRLYAAVRDGEQRQPVTEAFIRSARNHACDHLPFVKSAERPTYDAPTVRPGSPARL | soluble

Source: the DeepSol protein solubility set
